Measured values reported in article PMC9677509 (Biochemistry, 2017).

Legend:
[1] = molecular target: temperature sensitive HARS with the R362H substitution (UniProt P12081); assay: AUC
[2] = molecular target: the molecule itself; assay: AUC

Row | Molecule | stoichiometry N [1] | stoichiometry N [2]
1 | temperature sensitive HARS with the R362H substitution (from UniProt P12081 1-509) (enzyme) | 2 | 
2 | human FLAG-tagged wild type histidyl-tRNA synthetase (HARS) (enzyme, UniProt P12081 1-509, looked up) MAERAALEELVKLQGERVRGLKQQKASAELIEEEVAKLLKLKAQLGPDESKQKFVLKTPKGTRDYSPRQMAVREKVFDVIIRCFKRHGAEVIDTPVFELKETLMGKYGEDSKLIYDLKDQGGELLSLRYDLTVPFARYLAMNKLTNIKRYHIAKVYRRDNPAMTRGRYREFYQCDFDIAGNFDPMIPDAECLKIMCEILSSLQIGDFLVKVNDRRILDGMFAICGVSDSKFRTICSSVDKLDKVSWEEVKNEMVGEKGLAPEVADRIGDYVQQHGGVSLVEQLLQDPKLSQNKQALEGLGDLKLLFEYLTLFGIDDKISFDLSLARGLDYYTGVIYEAVLLQTPAQAGEEPLGVGSVAAGGRYDGLVGMFDPKGRKVPCVGLSIGVERIFSIVEQRLEALEEKIRTTETQVLVASAQKKLLEERLKLVSELWDAGIKAELLYKKNPKLLNQLQYCEEAGIPLVAIIGEQELKDGVIKLRSVTSREEVDVRREDLVEEIKRRTGQPLCIC |  | 2
3 | human FLAG-tagged Y454S histidyl-tRNA synthetase (HARS) (enzyme, UniProt P12081 1-509, looked up) MAERAALEELVKLQGERVRGLKQQKASAELIEEEVAKLLKLKAQLGPDESKQKFVLKTPKGTRDYSPRQMAVREKVFDVIIRCFKRHGAEVIDTPVFELKETLMGKYGEDSKLIYDLKDQGGELLSLRYDLTVPFARYLAMNKLTNIKRYHIAKVYRRDNPAMTRGRYREFYQCDFDIAGNFDPMIPDAECLKIMCEILSSLQIGDFLVKVNDRRILDGMFAICGVSDSKFRTICSSVDKLDKVSWEEVKNEMVGEKGLAPEVADRIGDYVQQHGGVSLVEQLLQDPKLSQNKQALEGLGDLKLLFEYLTLFGIDDKISFDLSLARGLDYYTGVIYEAVLLQTPAQAGEEPLGVGSVAAGGRYDGLVGMFDPKGRKVPCVGLSIGVERIFSIVEQRLEALEEKIRTTETQVLVASAQKKLLEERLKLVSELWDAGIKAELLYKKNPKLLNQLQSCEEAGIPLVAIIGEQELKDGVIKLRSVTSREEVDVRREDLVEEIKRRTGQPLCIC |  | 2
